Data: PMC6981215

Molecular target: Momordica charantia 7S globulin (Momordica charantia)
Test: SEC; HiLoad 16/60 Superdex 200 pg, 50 mM Tris pH 7.4 with 150 mM NaCl, 0.5 ml/min; peak at ~69.2 ml, mass estimated from a calibration with high molecular weight standards

Substance: Momordica charantia 7S globulin (natural protein)
- stoichiometry N: 3
